{"source": "paper PMC7083938", "about": "“NELL2-Robo3 complex structure reveals mechanisms of receptor activation for axon guidance” (Nature Communications, 2020)", "binders": {"B1": {"name": "full-length mouse NELL2 (ligand, UniProt Q61220 25-819, looked up)", "chain": "LGVDPSLQIDVLTELELGESTDGVRQVPGLHNGTKAFLFQESPRSIKASTATAERFFQKLRNKHEFTILVTLKQIHLNSGVILSIHHLDHRYLELESSGHRNEIRLHYRSGTHRPHTEVFPYILADAKWHKLSLAFSASHLILHIDCNKIYERVVEMPSTDLPLGTTFWLGQRNNAHGYFKGIMQDVHVLVMPQGFIAQCPDLNRTCPTCNDFHGLVQKIMELQDILSKTSAKLSRAEQRMNRLDQCYCERTCTVKGTTYRESESWTDGCKNCTCLNGTIQCETLVCPAPDCPPKSAPAYVDGKCCKECKSTCQFQGRSYFEGERNTVYSSSGMCVLYECKDQTMKLVENIGCPPLDCPESHQIALSHSCCKVCKGYDFCSEKHTCMENSVCRNLNDRAVCSCRDGFRALREDNAYCEDIDECAEGRHYCRENTMCVNTPGSFMCICKTGYIRIDDYSCTEHDECLTNQHNCDENALCFNTVGGHNCVCKPGYTGNGTTCKAFCKDGCRNGGACIAANVCACPQGFTGPSCETDIDECSEGFVQCDSRANCINLPGWYHCECRDGYHDNGMFAPGGESCEDIDECGTGRHSCTNDTICFNLDGGYDCRCPHGKNCTGDCVHEGKVKHTGQIWVLENDRCSVCSCQTGFVMCRRMVCDCENPTVDLSCCPECDPRLSSQCLHQNGETVYNSGDTWVQDCRQCRCLQGEVDCWPLACPEVECEFSVLPENECCPRCVTDPCQADTIRNDITKTCLDEMNVVRFTGSSWIKHGTECTLCQCKNGHLCCSVDPQCLQEL", "modifications": "biotin (NHS-Biotin) where captured on the SA chip for SPR", "notes": "NELL2, mouse; called full-length; the methods say that mature domains were cloned into pAcGP67A; Trimer by MALS; also called mNELL2; mNELL2 ectodomain; source: High Five cells (baculovirus), secreted, purified (Ni-NTA, SEC); not shown: His6, C-terminal, kept"}, "B2": {"name": "mouse Robo1 ectodomain (domain or fragment, UniProt O89026 20-858, looked up)", "chain": "SRLRQEDFPPRIVEHPSDLIVSKGEPATLNCKAEGRPTPTIEWYKGGERVETDKDDPRSHRMLLPSGSLFFLRIVHGRKSRPDEGVYICVARNYLGEAVSHNASLEVAILRDDFRQNPSDVMVAVGEPAVMECQPPRGHPEPTISWKKDGSPLDDKDERITIRGGKLMITYTRKSDAGKYVCVGTNMVGERESEVAELTVLERPSFVKRPSNLAVTVDDSAEFKCEARGDPVPTVRWRKDDGELPKSRYEIRDDHTLKIRKVTAGDMGSYTCVAENMVGKAEASATLTVQEPPHFVVKPRDQVVALGRTVTFQCEATGNPQPAIFWRREGSQNLLFSYQPPQSSSRFSVSQTGDLTITNVQRSDVGYYICQTLNVAGSIITKAYLEVTDVIADRPPPVIRQGPVNQTVAVDGTLILSCVATGSPAPTILWRKDGVLVSTQDSRIKQLESGVLQIRYAKLGDTGRYTCTASTPSGEATWSAYIEVQEFGVPVQPPRPTDPNLIPSAPSKPEVTDVSKNTVTLSWQPNLNSGATPTSYIIEAFSHASGSSWQTAAENVKTETFAIKGLKPNAIYLFLVRAANAYGISDPSQISDPVKTQDVPPTSQGVDHKQVQRELGNVVLHLHNPTILSSSSVEVHWTVDQQSQYIQGYKILYRPSGASHGESEWLVFEVRTPTKNSVVIPDLRKGVNYEIKARPFFNEFQGADSEIKFAKTLEEAPSAPPRSVTVSKNDGNGTAILVTWQPPPEDTQNGMVQEYKVWCLGNETKYHINKTVDGSTFSVVIPSLVPGIRYSVEVAASTGAGPGVKSEPQFIQLDSHGNPVSPEDQVSLAQQISDVVRQP", "notes": "Robo1, mouse, ectodomain; Mostly dimeric, in equilibrium with monomer and higher oligomers; also called mRobo1 ectodomain; mRobo1; source: High Five cells (baculovirus), secreted, purified (Ni-NTA, SEC)"}}, "key": {"[1]": {"target": "the molecule itself", "assay": "SEC-MALS; Wyatt HELEOS II coupled to an AKTA FPLC, Superose Increase 6 10/300, HBS; Zimm model"}, "[2]": {"target": "B2", "assay": "SPR; mRobo1 ectodomain on a CM5 chip by random amine coupling (~1,200 R.U.); mNELL2 as analyte; KD from equilibrium responses assuming 50 to 100% active surface; buffer as for the other SPR experiments, 25 °C", "conditions": "both partners purified"}, "[3]": {"target": "T1, mouse Robo1 FN1–3 (mouse, UniProt O89026 524-835, biotin on the N-terminal amine (NHS-Biotin at pH 6.5))", "T1 construct": "Robo1, mouse, FN domains 1-3; also called mRobo1 FN1–3; source: High Five cells (baculovirus), secreted, purified (Ni-NTA, SEC)", "T1 sequence (looked up)": "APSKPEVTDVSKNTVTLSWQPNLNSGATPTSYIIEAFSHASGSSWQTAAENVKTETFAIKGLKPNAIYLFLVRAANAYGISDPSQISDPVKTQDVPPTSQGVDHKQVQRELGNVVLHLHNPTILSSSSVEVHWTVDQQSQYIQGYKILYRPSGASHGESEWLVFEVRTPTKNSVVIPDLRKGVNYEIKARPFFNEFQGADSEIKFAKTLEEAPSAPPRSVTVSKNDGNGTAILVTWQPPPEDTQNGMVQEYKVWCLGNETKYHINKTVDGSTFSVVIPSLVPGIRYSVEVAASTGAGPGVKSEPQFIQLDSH", "assay": "SPR; mRobo1 FN1–3 biotinylated at the N-terminal amine (NHS-Biotin, pH 6.5), 315 RU captured on a Biacore SA chip; mNELL2 EGF1–6 as analyte; Langmuir isotherm", "conditions": "both partners purified"}, "[4]": {"target": "B1", "assay": "SEC; complex of full-length mNELL2 and mRobo3 FN1 purified by SEC; peak fractions quantified in triplicate by western blot against the His6 tag with 1:1 molar standards", "conditions": "both partners purified"}, "[5]": {"target": "the molecule itself", "assay": "AUC; sedimentation velocity, 20 °C, c(s) analysis in SEDFIT; single concentration 2.5 µM mRobo1 and 1.8 µM mRobo3 at 200,000 g, and concentration series (mRobo3 up to 20 µM)"}, "[6]": {"target": "T2, biotinylated human Robo3 FN1–3 (Avi-tagged) (human, UniProt Q96MS0 558-869, biotin on the Avi-tag (BirA))", "T2 construct": "Robo3, human, FN domains 1-3; also called biotinylated hRobo3 FN1–3; hRobo3 FN1–3; source: High Five cells (baculovirus), secreted, purified (Ni-NTA, SEC), biotinylated with BirA", "T2 sequence (looked up)": "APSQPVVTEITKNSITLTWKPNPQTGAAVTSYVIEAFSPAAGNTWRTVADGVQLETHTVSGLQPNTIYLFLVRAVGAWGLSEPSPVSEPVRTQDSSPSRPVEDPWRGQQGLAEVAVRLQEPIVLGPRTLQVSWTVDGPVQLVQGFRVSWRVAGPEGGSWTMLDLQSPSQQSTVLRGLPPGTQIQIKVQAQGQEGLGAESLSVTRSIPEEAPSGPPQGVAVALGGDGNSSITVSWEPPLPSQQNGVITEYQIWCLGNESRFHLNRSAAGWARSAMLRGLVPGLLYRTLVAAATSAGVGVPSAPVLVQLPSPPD", "assay": "SPR; biotinylated hRobo3 FN1–3 captured on an NLC (neutravidin) chip, ProteOn XPR36; NELL EGF constructs as analyte; 25 °C, 10 mM HEPES pH 7.2, 150 mM NaCl, 0.05% Tween-20, 0.1% BSA; equilibrium responses, 1:1 Langmuir model", "conditions": "both partners purified"}}, "note": "Several values for one entry are separate records, joined by “and”; a condition that tells them apart may be missing. Identical values can stand only once."}
{"binder": "B1", "values": [{"measurement": "stoichiometry N", "setting": "[1]", "result": 3}, {"measurement": "Kd", "setting": "[2]", "result": "~350 µM and 190 to 400 µM"}]}
{"binder": "mouse NELL2 EGF1–6, wild type (domain or fragment, NELL2, mouse, EGF domains 1-6; also called mNELL2 EGF1–6 WT; mNELL2 EGF1–6; source: High Five cells (baculovirus), secreted, purified (Ni-NTA, SEC)) not shown", "values": [{"measurement": "Kd", "setting": "[3]", "result": 14, "unit": "µM"}]}
{"binder": "mouse Robo3 FN1 domain (domain or fragment, UniProt Q9Z2I4 558-652, looked up, Robo3, mouse, FN1 domain; also called mRobo3 FN1; source: High Five cells (baculovirus), secreted, purified (Ni-NTA, SEC); not shown: His6, C-terminal, kept) PPSQPIVTEVTANSITLTWKPNPQSGATATSYVIEAFSQAAGNTWRTVADGVQLETYTISGLQPNTIYLFLVRAVGAWGLSEPSPVSEPVQTQDS", "values": [{"measurement": "stoichiometry N", "setting": "[4]", "result": "3 mRobo3 FN1 per mNELL2 trimer"}]}
{"binder": "B2", "values": [{"measurement": "stoichiometry N", "setting": "[5]", "result": 2}]}
{"binder": "human NELL2 EGF domains 1-6 (domain or fragment, NELL2, human, EGF domains 1-6; also called hNELL2 EGF1–6; NELL2 EGF1–6; source: High Five cells (baculovirus), secreted, purified (Ni-NTA, SEC)) not shown", "values": [{"measurement": "Kd", "setting": "[6]", "result": 0.6, "unit": "µM"}]}
